Laboratory results: patent US20230414712A1, “PHARMACEUTICAL COMPOSITION FOR PREVENTING OR TREATING CANCER COMPRISING RECOMBINANT STABILIZED GALECTIN 9 PROTEIN” (GBIOLOGICS INC., priority 2020, published 2023)

Assays:
[1] = test system: KRAS gene mutant pancreatic cancer (MIA PaCa-2) mouse model; assay: pancreatic cancer tissue size (MRI) in pancreatic cancer-induced mouse model; assay type: in vivo, mice; conditions: 50 days, FIG. 5; for size of pancreatic cancer tissue compared to the control group: intraperitoneal
Procedure: (§1) To investigate the anticancer activity of the recombinant stabilized galectin-9 protein having the amino acid sequence SEQ ID NO: 1, KRAS gene mutant pancreatic cancer cell line MIA PaCa-2 cells were transplanted and grown for two weeks to form pancreatic tumor tissue subcutaneously in mice, and the mice were then administered with the recombinant protein, and changes in body weight were monitored.
(§2) Specifically, the experiments were conducted in accordance with the Guide for the Care and Use of Laboratory Animals (NRC), and the mice were managed accordingly. After collecting mice with an average pancreatic cancer size of 200 nm 3, they were randomly classified into 5 group.
(§3) The experimental groups were classified into five groups (5 mice per group) as follows: control group (PBS), low-dose recombinant stabilized galectin-9 protein administration group (seal-9 0.5 mg/kg), high-dose recombinant stabilized galectin-9 protein administration group (seal-9 5 mg/kg), gemcitabine group (Gemcitabine 50 mg/kg), and combination of seal-9 and gemcitabine (seal-9 5 mg/kg+Gemcitabine 50 mg/kg). The mice were administered with seal-9 the given concentrations twice a week and/or gemcitabine once a week by intraperitoneal injection for 50 days, while monitoring changes in body weight (FIG. 4).
To investigate the anticancer activity of the recombinant stabilized galectin-9 protein having the amino acid sequence of SEQ ID NO: 1, the KRAS gene mutant pancreatic cancer (MIA PaCa-2) mouse model was established by using the same method described in Example <2-1> above, and seal-9 and/or gemcitabine were administered into the mice for 50 days and the change in the size of the pancreatic cancer tissue was evaluated using magnetic resonance imaging (MRI) (FIG. 5).

[2] = test system: KRAS gene mutated pancreatic cancer (MIA PaCa-2) mouse model; assay: survival rate in pancreatic cancer-induced mouse model; assay type: in vivo, mice; conditions: 50 days, tumor size of 1700 mm3 or more considered as time of death, FIG. 6
Procedure: as §1, §2, §3
In this case, a pancreatic cancer tissue size of 1700 mm3 or more was considered as the time of death.

DLD-1 cells [3] = assay: Annexin-APC and 7-AAD apoptosis analysis by flow cytometer; assay type: cell-based; conditions: 1,000 nM, 24 or 48 hours; FIG. 1B
Procedure: In addition, DLD-1 cells, a colorectal cancer cell line with KRAS gene mutation, were seeded at a density of 1×10^5 cells per well in a 6-well plates, cultured for 1 day at 37° C. and the recombinant protein from <Preparation Example 1> was then added to each well at a concentration of 1,000 nM, and the cells were further cultured for either 24 or 48 hours. After washing the cultured cells twice with cold PBD, the cells were stained using Annexin-APC and 7-AAD apoptosis kit (Biolegend, US) according to the manufacturer's instructions, and apoptosis was analyzed using a flow cytometer (CytoFLEX, Beckmancoulter) (FIG. 1B).

[4] = test system: KRAS wild-type or mutant colorectal, pancreatic, lung cancer and ovarian cancer cells (HT-29, DLD-1, HCT-116, SW620, Bx-pc3, L3.6pl, AsPC-1, H226, A549 …); assay: SRB (sulforhodamine B) cell growth assay in cancer cell lines; assay type: cell-based; conditions: 3.2, 16, 80, 400, 2000 or 10,000 nM, 72 hours; compared to negative control NIH3T3 cells; FIG. 1A
Procedure: To investigate the anticancer activity of the recombinant stabilized galectin-9 protein having the amino acid sequence of SEQ ID NO: 1, cell growth and apoptosis were observed after treatment of the recombinant protein in cancer cell lines having a KRAS wild type or KRAS gene mutation.
Specifically, to investigate the anticancer activity of the recombinant stabilized galectin-9 protein having the amino acid sequence of SEQ ID NO: 1, the protein was treated on cancer cell lines with KRAS wild-type or KRAS gene mutation, and the following cell lines were used: HT-29 for KRAS wild-type pancreatic cancer, DLD-1, HCT-116, and SW620 for KRAS gene-mutated colon cancer, Bx-pc3 for KRAS wild-type pancreatic cancer, L3.6pl and AsPC-1 for KRAS gene-mutated pancreatic cancer, H226 for KRAS wild-type lung cancer, A549 for KRAS gene-mutated lung cancer, SKOV3ip1 for KRAS wild-type ovarian cancer, and SKOV3 for KRAS gene-mutated ovarian cancer, and the cells were seeded at 5×10^3 cells per well in a 96-well plate and cultured at 37° C. for one day, and then the recombinant protein was treated with concentrations of 3.2, 16, 80, 400, 2000, or 10,000 nM per well, and cultured for 72 hours. After 72 hours of incubation, the cell growth was confirmed using the SRB (sulforhodamine B) assay kit (Abcam, US) according to the manufacturer's instructions. […]

[5] = body weight changes in pancreatic cancer-induced mouse model; assay type: in vivo, mice; conditions: intraperitoneal, 50 days, FIG. 4
Procedure: as §1, §2, §3

DLD-1 cells [6] = assay: colony formation assay; assay type: cell-based; conditions: 0, 50, 100, 250, 500, 1000 nM, 10 days, 3% v/v Matrigel; FIG. 2
Procedure: To investigate the anti-cancer activity of the recombinant stabilized galectin-9 protein having the amino acid sequence of SEQ ID NO: 1, the proliferation of cancer cells by colony formation assay was analyzed by treating KRAS mutant colorectal cancer cell lines with the recombinant protein.
Specifically, DLD-1 cells, a colorectal cancer cell line with KRAS gene mutation, were seeded in 6-well plates at 5×10^3 cells per well in a medium containing 3% v/v Matrigel, and then treated with the recombinant protein from <Preparation Example 1> at concentrations of 0, 50, 100, 250, 500, 1000 nM and incubated for 10 days. Then, after washing with phosphate-buffered saline, colonies were stained with a solution of 0.05% crystal violet, 1% formaldehyde, and 1% methanol in phosphate-buffered saline for 20 minutes at room temperature. The plate was then washing with distilled water and dried at room temperature for 16 hours. The number of colonies was measured by capturing images of the stained and dried plates and analyzing the images (FIG. 2).

[7] = high-dose, seal-9 5 mg/kg twice a week
[8] = low-dose, seal-9 0.5 mg/kg twice a week

B1: seal-9: recombinant stabilized galectin-9 protein of SEQ ID NO: 1; linker region deleted, CCRD positions 1 to 10 deleted, Ala at position 13 substituted with Pro (protein)
chain: MAFSGSQAPYLSPAVPFSGTIQGGLQDGLQITVNGTVLSSSGTRFAVNFQTGFSGNDIAFHFNPRFEDGGYVVCNTRQNGSWGPEERKTHMPFQKGMPFDLCFLVQSSDFKVMVNGILFVQYFHRVPFHRVDTISVNGSVQLSYISFQHPPYPMPFITTILGGLYPSKSILLSGTVLPSAQRFHINLCSGNHIAFHLNPRFDENAVVRNTQIDNSWGSEERSLPRKMPFVRGQSFSVWILCEAHCLKVAVDGQHLFEYYHRLRNLPTINRLEVGGDIQLTHVQT
modifications: sGal-9
notes: linker region deleted, CCRD positions 1 to 10 deleted, Ala at position 13 substituted with Pro
size of pancreatic cancer tissue compared to the control group [1, 7]: decreased significantly | size of pancreatic cancer tissue compared to the control group [1, 8]: decreased significantly | size of pancreatic cancer tissue, seal-9 compared with conventional chemotherapy ([1]; seal-9 0.5 or 5 mg/kg vs gemcitabine 50 mg/kg): superior effect at lower doses than conventional chemotherapy | survival rate ([2]; high-dose, seal-9 5 mg/kg): superior survival rates | survival rate ([2]; low-dose, seal-9 0.5 mg/kg): superior survival rates | apoptosis (DLD-1 cells [3]): induced apoptosis | cell growth [4]: inhibited cell growth | changes in body weight [5, 7]: no significant changes in body weight | changes in body weight [5, 8]: no significant changes in body weight | colony formation ability / proliferation of cancer cells (DLD-1 cells [6]): inhibited the proliferation of cancer cells in a concentration-dependent manner
